Columns and labels:
[1] = CHX chase, FLAG-ESRRB immunoblot, mESCs; settings: glycan lost; control: DMSO
[2] = ESRRB-responsive element luciferase reporter, HEK293T; settings: glycan lost
[3] = CHX 12 h, immunoblot, HEK293T; settings: glycan lost; control: EGFP-ESRRB wild type
[4] = CHX chase up to 12 h, immunoblot, mESCs; settings: glycan lost; control: FLAG-ESRRB wild type
[5] = GFP immunoprecipitation, ubiquitin blot, HEK293T; settings: glycan lost; control: wild type

B1: ESRRB: Ac45SGlcNAc (OGT inhibitor) (protein)
parent chain: MSSEDRHLGSSCGSFIKTEPSSPSSGIDALSHHSPSGSSDASGGFGIALSTHANGLDSPPMFAGAGLGGNPCRKSYEDCTSGIMEDSAIKCEYMLNAIPKRLCLVCGDIASGYHYGVASCEACKAFFKRTIQGNIEYNCPATNECEITKRRRKSCQACRFMKCLKVGMLKEGVRLDRVRGGRQKYKRRLDSENSPYLNLPISPPAKKPLTKIVSNLLGVEQDKLYAMPPNDIPEGDIKALTTLCELADRELVFLINWAKHIPGFPSLTLGDQMSLLQSAWMEILILGIVYRSLPYDDKLAYAEDYIMDEEHSRLVGLLDLYRAILQLVRRYKKLKVEKEEFMILKALALANSDSMYIENLEAVQKLQDLLHEALQDYELSQRHEEPRRAGKLLLTLPLLRQTAAKAVQHFYSVKLQGKVPMHKLFLEMLEAKV
degradation_or_half_life [1]: decreases | other: transcriptional activity ([2]; control: DMSO): decreases

B2: ESRRB: S25A (protein)
parent chain: MSSEDRHLGSSCGSFIKTEPSSPSSGIDALSHHSPSGSSDASGGFGIALSTHANGLDSPPMFAGAGLGGNPCRKSYEDCTSGIMEDSAIKCEYMLNAIPKRLCLVCGDIASGYHYGVASCEACKAFFKRTIQGNIEYNCPATNECEITKRRRKSCQACRFMKCLKVGMLKEGVRLDRVRGGRQKYKRRLDSENSPYLNLPISPPAKKPLTKIVSNLLGVEQDKLYAMPPNDIPEGDIKALTTLCELADRELVFLINWAKHIPGFPSLTLGDQMSLLQSAWMEILILGIVYRSLPYDDKLAYAEDYIMDEEHSRLVGLLDLYRAILQLVRRYKKLKVEKEEFMILKALALANSDSMYIENLEAVQKLQDLLHEALQDYELSQRHEEPRRAGKLLLTLPLLRQTAAKAVQHFYSVKLQGKVPMHKLFLEMLEAKV
degradation_or_half_life [3]: decreases | degradation_or_half_life [4]: decreases | other: ubiquitination [5]: increases | other: transcriptional activity ([2]; control: FLAG-ESRRB wild type): decreases

Source: publication PMC6731260
